Numbered stars: 1 amine (or outer) side, 2 acyl side, 3 side chain; on linkers, the order of the positions; unused ones are H or OH. Square brackets hold non-standard residues; d marks the D form. Ends that are not written are not given here. * marks the point of attachment. ξ: configuration not given here. Apc(Ae) = 4-amino-1-(2-amino-ethyl)-piperidine-4-carboxylic acid, O=C(C1(N[*:1])CCN(CCN[*:3])CC1)[*:2]; Apc(Et) = 4-amino-1-ethyl-piperidine-4-carboxylic acid, CCN1CCC(N[*:1])(C(=O)[*:2])CC1; Apc(Me) = 4-amino-1-methyl-piperidine-4-carboxylic acid, CN1CCC(N[*:1])(C(=O)[*:2])CC1; Pro(trans-4-NH2) = O=C([C@@H]1C[C@@H](N[*:3])CN1[*:1])[*:2]; Sni = (S)-nipecotic acid, O=C([C@H]1CCCN([*:1])C1)[*:2]; Tyr(3-I) = N[C@@H](Cc1ccc(O)c(I)c1)C(=O)O; NMeR = CN[C@@H](CCCNC(=N)N)C(=O)O; dDap(Me2) = CN(C)C[C@@H](N)C(=O)O; Hyp = O=C(O)[C@@H]1C[C@@H](O)CN1; Gly(cPr) = N[C@H](C(=O)O)C1CC1; Aoc(2) = CCCCCC[C@H](N)C(=O)O; NMeL = CN[C@@H](CC(C)C)C(=O)O; Chg = N[C@H](C(=O)O)C1CCCCC1; Tle = CC(C)(C)[C@H](N)C(=O)O; ξαMeL = CC(C)CC(C)(N)C(=O)O; Octanoyl = CCCCCCCC(=O)*; Api = NC1(C(=O)O)CCNCC1; dAze = O=C(O)[C@H]1CCN1; Deg = CCC(N)(CC)C(=O)O; Oct = not defined here; Aib = CC(C)(N)C(=O)O; GABA = NCCCC(=O)O
T1: natriuretic peptide receptor-B (human)
T1 chain: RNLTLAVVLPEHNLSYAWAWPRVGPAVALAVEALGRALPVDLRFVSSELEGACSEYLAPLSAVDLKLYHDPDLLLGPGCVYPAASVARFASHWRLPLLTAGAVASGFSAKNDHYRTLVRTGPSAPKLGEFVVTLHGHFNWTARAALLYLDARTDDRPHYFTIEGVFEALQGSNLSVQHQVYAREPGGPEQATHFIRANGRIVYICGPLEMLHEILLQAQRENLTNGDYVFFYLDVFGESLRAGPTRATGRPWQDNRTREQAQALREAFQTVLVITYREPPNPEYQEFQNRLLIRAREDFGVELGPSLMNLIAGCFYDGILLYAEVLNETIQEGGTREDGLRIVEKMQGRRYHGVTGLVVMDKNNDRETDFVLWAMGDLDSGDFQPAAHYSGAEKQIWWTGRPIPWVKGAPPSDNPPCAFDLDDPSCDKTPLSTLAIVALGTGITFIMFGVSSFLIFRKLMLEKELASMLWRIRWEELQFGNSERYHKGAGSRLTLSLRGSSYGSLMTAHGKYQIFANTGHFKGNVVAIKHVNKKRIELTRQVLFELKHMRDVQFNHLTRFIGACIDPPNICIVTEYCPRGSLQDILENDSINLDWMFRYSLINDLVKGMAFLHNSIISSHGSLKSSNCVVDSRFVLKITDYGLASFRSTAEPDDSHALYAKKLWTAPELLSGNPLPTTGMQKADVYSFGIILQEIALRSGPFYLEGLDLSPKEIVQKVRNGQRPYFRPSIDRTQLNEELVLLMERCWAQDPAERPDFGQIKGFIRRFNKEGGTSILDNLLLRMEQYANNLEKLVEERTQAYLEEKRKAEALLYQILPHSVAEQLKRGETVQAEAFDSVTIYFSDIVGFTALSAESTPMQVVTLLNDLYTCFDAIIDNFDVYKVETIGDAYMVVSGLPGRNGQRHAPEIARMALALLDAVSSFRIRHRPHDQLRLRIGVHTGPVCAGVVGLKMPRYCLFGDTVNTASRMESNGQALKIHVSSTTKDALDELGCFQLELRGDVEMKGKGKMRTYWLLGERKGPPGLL

B1: JAL-1421 (peptide)
peptide: Octanoyl-AFLL[Hyp][NMeL][Chg]RI-NH2
modifications: also: lower-case ala, leu: meaning not given here
B2: JAL-1434 (peptide)
peptide: Octanoyl-AFRL[Hyp][NMeL]DPI-NH2
modifications: also: lower-case ala, arg: meaning not given here
B3: JAL-1430 (peptide)
peptide: [Tyr(3-I)][Aoc(2)]AFRL[Hyp][NMeL]DRI-NH2
modifications: also: lower-case ala, arg: meaning not given here
B4: JAL-1435 (peptide)
peptide: Octanoyl-AF[Api]L[Hyp][NMeL]DPI-NH2
modifications: also: lower-case ala: meaning not given here
B5: JAL-1407 (peptide)
peptide: Octanoyl-[dA]F[Apc(Et)]E[dT]L[Hyp][NMeL]DRI-NH2
B6: JAL-1420 (peptide)
peptide: Octanoyl-AFLL[Hyp][NMeL][Tle]RI-NH2
modifications: also: lower-case ala, leu: meaning not given here
B7: JAL-1436 (peptide)
peptide: Octanoyl-[Sni]FLL[Hyp][NMeL]DPI-NH2
modifications: also: lower-case leu: meaning not given here
B8: JAL-1432 (peptide)
peptide: Ac-[Tyr(3-I)][GABA][Aoc(2)]AFRL[Hyp][NMeL]DRI-NH2
modifications: also: lower-case ala, arg: meaning not given here
B9: JAL-0651 (peptide)
peptide: XXFGLKLDRI
HELM: PEPTIDE1{[CCCCCC(=O)[*:2]].[O=C(C1CCN([*:1])CC1)[*:2]].F.G.L.K.L.D.R.I.[am]}$$$$V2.0
SMILES: CCCCCC(=O)N1CCC(C(=O)N[C@@H](Cc2ccccc2)C(=O)NCC(=O)N[C@@H](CC(C)C)C(=O)N[C@@H](CCCCN)C(=O)N[C@@H](CC(C)C)C(=O)N[C@@H](CC(=O)O)C(=O)N[C@@H](CCCNC(=N)N)C(=O)N[C@H](C(N)=O)[C@@H](C)CC)CC1
B10: JAL-0653 (peptide)
peptide: XXFGLKLDRI
HELM: PEPTIDE1{[CCCCCC(=O)[*:2]].[O=C([C@H]1CC[C@H](CN[*:1])CC1)[*:2]].F.G.L.K.L.D.R.I.[am]}$$$$V2.0
SMILES: CCCCCC(=O)NC[C@H]1CC[C@H](C(=O)N[C@@H](Cc2ccccc2)C(=O)NCC(=O)N[C@@H](CC(C)C)C(=O)N[C@@H](CCCCN)C(=O)N[C@@H](CC(C)C)C(=O)N[C@@H](CC(=O)O)C(=O)N[C@@H](CCCNC(=N)N)C(=O)N[C@H](C(N)=O)[C@@H](C)CC)CC1
B11: JAL-1414 (peptide)
peptide: Octanoyl-AFLL[Hyp][NMeL]DR[ξαMeL]-NH2
modifications: also: lower-case ala, leu: meaning not given here
B12: JAL-1404 (peptide)
peptide: Octanoyl-[Sni]F[dL]L[Pro(trans-4-NH2)][NMeL]VRI-NH2
B13: JAL-1429 (peptide)
peptide: [Oct][Sni]F[dDap(Me2)]L[Hyp][NMeL]DRI-NH2
modifications: reading uncertain; also: printed as Oct-Sni-Phe-dap(Me2)-Leu-Hyp-Nml-Asp-Arg-Ile-NH2
B14: JAL-1406 (peptide)
peptide: Octanoyl-[dA]F[Apc(Me)]M[dE]L[Hyp][NMeL]DRI-NH2
B15: JAL-1431 (peptide)
peptide: [Tyr(3-I)][GABA][Aoc(2)]AFRL[Hyp][NMeL]DRI-NH2
modifications: also: lower-case ala, arg: meaning not given here
B16: JAL-1424 (peptide)
peptide: Octanoyl-AFLL[Hyp][NMeL][Gly(cPr)]RI-NH2
modifications: also: lower-case ala, leu: meaning not given here
B17: JAL-1405 (peptide)
peptide: Octanoyl-[Sni]F[dDap(Me2)]L[Pro(trans-4-NH2)][NMeL]VRI-NH2
B18: JAL-0652 (peptide)
peptide: XXFGLKLDRI
HELM: PEPTIDE1{[CCCCCC(=O)[*:2]].[O=C(Cn1cccc(N[*:1])c1=O)[*:2]].F.G.L.K.L.D.R.I.[am]}$$$$V2.0
SMILES: CCCCCC(=O)Nc1cccn(CC(=O)N[C@@H](Cc2ccccc2)C(=O)NCC(=O)N[C@@H](CC(C)C)C(=O)N[C@@H](CCCCN)C(=O)N[C@@H](CC(C)C)C(=O)N[C@@H](CC(=O)O)C(=O)N[C@@H](CCCNC(=N)N)C(=O)N[C@H](C(N)=O)[C@@H](C)CC)c1=O
B19: JAL-1418 (peptide)
peptide: Octanoyl-AFLL[Hyp][NMeL]DPI-NH2
modifications: also: lower-case ala, leu: meaning not given here
B20: JAL-1417 (peptide)
peptide: Octanoyl-AFLL[Hyp][NMeL]D[NMeR]I-NH2
modifications: also: lower-case ala, leu: meaning not given here
B21: JAL-1401 (peptide)
peptide: Octanoyl-[Sni]F[dL]L[Pro(trans-4-NH2)][NMeL]VRI-NH2
B22: JAL-1413 (peptide)
peptide: Octanoyl-[dA]F[dL]L[Hyp][NMeL]DR[Aib]-NH2
B23: JAL-1416 (peptide)
peptide: Octanoyl-AFLL[Hyp][NMeL]DR[Deg]-NH2
modifications: also: lower-case ala, leu: meaning not given here
B24: JAL-1408 (peptide)
peptide: Octanoyl-[dA]F[Apc(Ae)]A[dE]L[Hyp][NMeL]DRI-NH2
B25: JAL-1402 (peptide)
peptide: Octanoyl-[Sni]F[dDap(Me2)]L[Hyp][NMeL]VRI-NH2
B26: JAL-1437 (peptide)
peptide: Octanoyl-AFLL[Hyp][NMeL]D[dAze]I-NH2
modifications: also: lower-case ala, leu: meaning not given here
B27: JAL-1403 (peptide)
peptide: Octanoyl-[Sni]F[dDap(Me2)]L[Pro(trans-4-NH2)][NMeL]VRI-NH2

Molecular target: T1, natriuretic peptide receptor-B
Assay: cell-based or functional assay

EC50 group, cGMP in GTM-3 cells	Binder
≤ 15 µM	B1
≤ 5 µM	B2
≤ 1 µM	B3
≤ 5 µM	B4
≤ 1 µM	B5
≤ 15 µM	B6
≤ 5 µM	B7
≤ 15 µM	B8
≤ 15 µM	B9
≤ 15 µM	B10
≤ 1 µM	B11
≤ 5 µM	B12
≤ 1 µM	B13
≤ 1 µM	B14
≤ 15 µM	B15
≤ 15 µM	B16
≤ 1 µM	B17
≤ 15 µM	B18
≤ 5 µM	B19
≤ 1 µM	B20
≤ 1 µM	B21
≤ 5 µM	B22
≤ 1 µM	B23
≤ 5 µM	B24
≤ 5 µM	B25
≤ 5 µM	B26
≤ 1 µM	B27

— patent US9187525B2, “Methods of treating ophthalmic diseases using NPR-B agonists” (Shire Orphan Therapies GmbH, dated 2015)
